# B1: aptTNF-alpha (ssDNA)
# DNA: GCGCCACTACAGGGGAGCTGCCATTCGAATAGGTGGGCCGC
# B2: aptTNF-alpha-PEG (dimer) (ssDNA)
# DNA: B1 DNA
# modifications: two copies of amine-labeled SEQ ID NO: 1 linked by 20 kDa PEG (NHS-PEG-NHS)
# What was measured:
# TNF-alpha = TNF-alpha (Mus musculus, UniProt P06804 P06804:80-235); assay: filter; 140 nM protein, 50 nM aptamer; fold over BSA, value only in figure; settings: chain copies: 3 (inferred)
# Method: (§1) Human TNF-α proteins (0, 8.75, 17.5, 35, 70, 140 nM, R&D Systems) were incubated with aptTNF-α (50 nM) at 37° C. for 1 h. In addition, mouse TNF-α proteins (140 nM) or BSA (140 nM) were incubated with aptTNF-α (50 nM) or aptTNF-α-PEG (50 nM) as well. The protein-bound aptamers were then collected by nitrocellulose filter and eluted by heating. The amount of the eluted aptamers was quantified by quantitative PCR (LightCycler 480 system, Roche Applied Science, Mannheim, Germany) The dissociated constant (Kd) was calculated by GraphPad Prism 5 (GraphPad Software, San Diego, Calif.), using the equation Y=Amax×X/(Kd+X). The relative amounts of protein-binding aptamers (human TNF-α proteins and mouse TNF-α proteins) were represented as fold changes, using BSA as the reference (1 fold).
# [1] = target: BSA (bovine serum albumin) (UniProt P02769 P02769:25-607); assay: filter; BSA 140 nM used as reference (1 fold)
# Chain of BSA (bovine serum albumin) (P02769 25-607, one chain of several): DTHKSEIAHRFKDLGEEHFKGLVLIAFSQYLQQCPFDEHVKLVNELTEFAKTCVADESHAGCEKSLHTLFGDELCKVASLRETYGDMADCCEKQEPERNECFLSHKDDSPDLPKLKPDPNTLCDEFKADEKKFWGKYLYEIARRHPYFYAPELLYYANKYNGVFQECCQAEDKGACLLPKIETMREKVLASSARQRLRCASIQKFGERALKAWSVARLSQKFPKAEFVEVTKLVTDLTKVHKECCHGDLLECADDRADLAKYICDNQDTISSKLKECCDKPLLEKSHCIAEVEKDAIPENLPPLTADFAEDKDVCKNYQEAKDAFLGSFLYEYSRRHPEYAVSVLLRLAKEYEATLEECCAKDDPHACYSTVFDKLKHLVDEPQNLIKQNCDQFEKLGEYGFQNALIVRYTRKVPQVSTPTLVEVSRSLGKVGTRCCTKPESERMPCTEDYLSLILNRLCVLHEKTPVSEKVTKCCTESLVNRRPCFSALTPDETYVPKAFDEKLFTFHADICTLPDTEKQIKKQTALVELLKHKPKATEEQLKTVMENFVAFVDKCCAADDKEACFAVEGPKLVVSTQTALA
# Method: as §1
# Chain of TNF-alpha (P06804 80-235, one chain of several): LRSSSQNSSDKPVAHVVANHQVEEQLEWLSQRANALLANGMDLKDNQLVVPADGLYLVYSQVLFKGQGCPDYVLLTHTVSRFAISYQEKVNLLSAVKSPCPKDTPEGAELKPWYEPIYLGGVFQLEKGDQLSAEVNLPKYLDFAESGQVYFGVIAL
Binder,binding result (TNF-alpha),binding signal [1] [fold]
B1,binds,1
B2,binds,1
